The record followed here is patent US20250313611A1 (VIB VZW, published 2025).

T1: recombinant HKU1 spike protein (HCoV-HKU1, UniProt Q5MQD0 13-1276)
T1 sequence: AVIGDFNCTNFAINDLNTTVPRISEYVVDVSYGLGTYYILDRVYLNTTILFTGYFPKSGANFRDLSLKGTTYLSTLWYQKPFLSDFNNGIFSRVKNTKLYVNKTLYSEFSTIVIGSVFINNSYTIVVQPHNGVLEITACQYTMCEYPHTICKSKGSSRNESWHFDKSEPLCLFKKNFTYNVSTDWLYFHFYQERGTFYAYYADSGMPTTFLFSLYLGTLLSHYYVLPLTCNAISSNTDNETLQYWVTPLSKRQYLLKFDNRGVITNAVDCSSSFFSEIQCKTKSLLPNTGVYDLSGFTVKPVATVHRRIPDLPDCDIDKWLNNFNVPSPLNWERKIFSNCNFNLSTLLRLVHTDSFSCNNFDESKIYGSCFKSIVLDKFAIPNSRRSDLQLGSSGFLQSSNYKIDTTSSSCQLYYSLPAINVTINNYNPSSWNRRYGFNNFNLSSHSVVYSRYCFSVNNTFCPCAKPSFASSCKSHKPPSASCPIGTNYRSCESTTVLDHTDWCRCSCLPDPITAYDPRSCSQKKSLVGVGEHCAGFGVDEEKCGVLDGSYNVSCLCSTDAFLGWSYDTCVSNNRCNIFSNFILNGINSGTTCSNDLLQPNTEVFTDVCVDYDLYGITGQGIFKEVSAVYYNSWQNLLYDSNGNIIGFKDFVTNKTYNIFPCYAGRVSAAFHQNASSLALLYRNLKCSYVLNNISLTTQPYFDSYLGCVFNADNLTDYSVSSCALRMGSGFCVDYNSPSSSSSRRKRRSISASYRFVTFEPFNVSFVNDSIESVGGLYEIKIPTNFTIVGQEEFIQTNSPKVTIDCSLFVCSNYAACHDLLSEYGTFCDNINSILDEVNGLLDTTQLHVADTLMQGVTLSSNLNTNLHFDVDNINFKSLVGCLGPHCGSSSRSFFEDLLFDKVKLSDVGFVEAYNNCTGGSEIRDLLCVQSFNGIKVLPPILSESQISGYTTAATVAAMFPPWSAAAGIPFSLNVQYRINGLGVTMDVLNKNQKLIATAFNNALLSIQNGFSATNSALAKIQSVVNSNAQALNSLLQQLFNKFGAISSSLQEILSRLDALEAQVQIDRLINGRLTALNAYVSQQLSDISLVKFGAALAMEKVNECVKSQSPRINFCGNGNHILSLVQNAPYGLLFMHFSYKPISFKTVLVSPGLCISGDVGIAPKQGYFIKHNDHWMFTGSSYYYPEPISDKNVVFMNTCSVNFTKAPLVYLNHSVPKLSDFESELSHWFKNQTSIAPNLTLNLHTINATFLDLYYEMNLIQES

T2: recombinant MERS-COV spike protein (MERS-CoV, UniProt K9N5Q8 18-1291)
T2 sequence: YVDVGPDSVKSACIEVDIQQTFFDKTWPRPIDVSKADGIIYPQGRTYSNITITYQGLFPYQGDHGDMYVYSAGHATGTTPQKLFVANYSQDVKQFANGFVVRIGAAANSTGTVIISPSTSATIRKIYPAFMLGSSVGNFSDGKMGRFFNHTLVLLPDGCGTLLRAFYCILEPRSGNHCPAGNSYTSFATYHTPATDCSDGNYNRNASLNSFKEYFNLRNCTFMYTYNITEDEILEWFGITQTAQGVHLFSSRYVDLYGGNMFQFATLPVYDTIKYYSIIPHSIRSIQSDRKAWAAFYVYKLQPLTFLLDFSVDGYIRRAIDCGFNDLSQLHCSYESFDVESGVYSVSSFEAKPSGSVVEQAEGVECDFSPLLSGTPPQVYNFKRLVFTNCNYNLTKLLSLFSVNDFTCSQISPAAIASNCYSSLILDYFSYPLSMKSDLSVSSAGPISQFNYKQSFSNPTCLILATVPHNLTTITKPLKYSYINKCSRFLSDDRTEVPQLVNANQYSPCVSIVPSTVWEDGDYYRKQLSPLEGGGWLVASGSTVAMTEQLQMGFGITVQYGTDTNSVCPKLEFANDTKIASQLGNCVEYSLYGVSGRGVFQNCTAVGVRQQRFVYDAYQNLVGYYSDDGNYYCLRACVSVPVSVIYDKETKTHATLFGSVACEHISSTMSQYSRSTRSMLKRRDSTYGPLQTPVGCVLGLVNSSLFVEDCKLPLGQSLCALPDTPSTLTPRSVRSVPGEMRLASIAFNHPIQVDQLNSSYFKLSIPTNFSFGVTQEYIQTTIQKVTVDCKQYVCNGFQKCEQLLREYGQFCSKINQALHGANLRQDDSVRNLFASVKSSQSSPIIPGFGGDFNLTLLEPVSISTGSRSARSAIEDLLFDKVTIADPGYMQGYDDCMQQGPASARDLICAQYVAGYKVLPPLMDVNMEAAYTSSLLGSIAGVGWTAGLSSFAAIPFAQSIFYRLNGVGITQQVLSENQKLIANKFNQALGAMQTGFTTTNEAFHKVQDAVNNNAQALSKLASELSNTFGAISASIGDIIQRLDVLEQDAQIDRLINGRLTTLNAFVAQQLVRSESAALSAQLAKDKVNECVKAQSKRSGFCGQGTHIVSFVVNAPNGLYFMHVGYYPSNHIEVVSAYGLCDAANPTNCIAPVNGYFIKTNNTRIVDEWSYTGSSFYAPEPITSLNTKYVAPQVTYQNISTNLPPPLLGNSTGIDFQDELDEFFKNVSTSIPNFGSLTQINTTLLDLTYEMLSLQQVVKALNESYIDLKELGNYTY

B1: VHH R4_DC20 (VHH)
VHH: QVQLQESGGGLVQTGDSLRLSCAVSGRPFSTYTMGWFRQAPGKEREFVASMRWSGGTMNYADSVKGRFTISRDNDQNTVNLQMNSLKPEDTAVYYCAAAYVSKANYGSLWYRNSGLYDYWGQGTQVTVSS
B2: VHH R3_DC20 (VHH)
VHH: B1 VHH with T14A, S50A, M58I, N59Y, D75A, K87E
B3: VHH R3_DC23 (VHH)
VHH: QVQLQESGGGLVQAGDSLTLSCAVSGRIFSTYTMGWFRQAPGKEREFVAAVRWGAGTIYYADSMKGRFTISRDSAKNTVDLQMNSTKPEDTAVYYCGAAYVSKANYGSLWYQDSRRYDYWGQGTQVTVSS
B4: VHH R3_DC9 (VHH)
VHH: B1 VHH with N59Y, A61S, Q76K
B5: VHH R3_DC2 (VHH)
VHH: B1 VHH with M58K, N59Y, A61S, T69S
B6: VHH R3_C4 (VHH)
VHH: B1 VHH with T14A, S50A, M58I, N59Y, Q76K, Q82E, N113A
B7: VHH R4_DC16 (VHH)
VHH: B1 VHH with T14A, S50A, M58I, N59Y, D75A, L109S
B8: VHH R4_DC13 (VHH)
VHH: B1 VHH with M58V, N59Y, A61S, Q76K, S85N, L109F, G115D
B9: VHH R4_DC9 (VHH)
VHH: QVQLQESGGGLVQAGDSLRLSCAASGRIFSTYTMGWFRQAPGMEREFVAAIRWSGSTVYYADSVKGRFTISRDNAKNTVYLQMNSLKPEDTAVYYCAAARVSKANYGTLWYRASGLYDYWGQGTQVTVSS
B10: VHH R4_DC6 (VHH)
VHH: QVQLQESGGGLVQAGDSLRLSCAASGRILSTFTMGWFRQAPGKEREFVAAMRWNGGTKNYADSVKGRFTISRDNANSVVYLQMNSTKPEDTAVYYCAAAYVSKANYGSLWYRTPSLYDYWGQGTQVTVSS

Changes are numbered by the printed parent chain.

T3 sequence (P02769 25-607 limits assumed): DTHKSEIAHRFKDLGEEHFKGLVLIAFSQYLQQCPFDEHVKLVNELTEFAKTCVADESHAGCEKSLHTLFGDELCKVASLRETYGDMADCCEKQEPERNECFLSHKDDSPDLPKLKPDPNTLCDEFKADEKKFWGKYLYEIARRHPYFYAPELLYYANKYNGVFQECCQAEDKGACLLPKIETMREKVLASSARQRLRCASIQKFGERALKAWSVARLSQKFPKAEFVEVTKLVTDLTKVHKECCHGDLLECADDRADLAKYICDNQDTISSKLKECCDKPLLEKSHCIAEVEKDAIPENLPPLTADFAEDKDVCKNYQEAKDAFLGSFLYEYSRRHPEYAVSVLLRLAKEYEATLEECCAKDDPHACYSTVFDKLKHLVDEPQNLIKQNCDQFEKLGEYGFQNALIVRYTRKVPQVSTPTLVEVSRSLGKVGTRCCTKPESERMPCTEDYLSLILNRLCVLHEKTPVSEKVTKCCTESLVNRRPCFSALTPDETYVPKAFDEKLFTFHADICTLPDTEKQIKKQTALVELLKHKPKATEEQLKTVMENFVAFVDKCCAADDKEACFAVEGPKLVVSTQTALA

One assay has as its target T3, BSA (bovine, UniProt P02769).
T3 construct: coated control antigen
In words: ELISA, coated BSA, dilution series, OD450 [1/3]. Background: In an ELISA, binding on a coated surface is turned into a signal by an enzyme label.
Consider B1, for which the binding result is listed as “no binding (tested: 10 µg/ml)”.

B2: the binding result was “no binding (tested: 10 µg/ml)”.

Consider B3, for which the binding result is “no binding (tested: 10 µg/ml)”.

The next assay has as its target SARS-COV-2 RBD (His-tagged, Sinobiologicals) (SARS-CoV-2 (Wuhan), UniProt P0DTC2 319-541). In words: ELISA, periplasmic extract 1/10, OD450 antigen/OD450 BSA.
Turning to B2, the binding result is on record as “no binding (tested: extract 1/10, concentration not given)”.

Consider B4, for which the binding result is reported as “no binding (tested: extract 1/10, concentration not given)”.

Consider B5, for which the binding result was “no binding (tested: extract 1/10, concentration not given)”.

The next assay concerns the target T1, recombinant HKU1 spike protein. Kind of assay: ELISA, periplasmic extract 1/10, heat map of binding (%).
As for B6, the binding result is on record as “no binding (tested: extract 1/10, concentration not given)”.

As to B7, the binding result is given as “no binding (tested: extract 1/10, concentration not given)”.

Consider B1, for which the binding result is “no binding (tested: extract 1/10, concentration not given)”.

Consider B8, for which the binding result is given as “no binding (tested: extract 1/10, concentration not given)”.

For the molecule B2, the binding result is “no binding (tested: extract 1/10, concentration not given)”.

With B4, the binding result is “no binding (tested: extract 1/10, concentration not given)”.

As to B5, the binding result is listed as “no binding (tested: extract 1/10, concentration not given)”.

Regarding B9, the binding result is “no binding (tested: extract 1/10, concentration not given)”.

On to B3, for which the binding result is recorded as “no binding (tested: extract 1/10, concentration not given)”.

With B10, the binding result is given as “no binding (tested: extract 1/10, concentration not given)”.

In the next assay the target is T2, recombinant MERS-COV spike protein. Described as above.
For the molecule B6, the binding result is reported as “no binding (tested: extract 1/10, concentration not given)”.

On to B7, for which the binding result is listed as “no binding (tested: extract 1/10, concentration not given)”.

B1: the binding result is “no binding (tested: extract 1/10, concentration not given)”.

For the molecule B8, the binding result was “no binding (tested: extract 1/10, concentration not given)”.

As to B2, the binding result is recorded as “no binding (tested: extract 1/10, concentration not given)”.

Regarding B4, the binding result is given as “no binding (tested: extract 1/10, concentration not given)”.

As for B5, the binding result is on record as “no binding (tested: extract 1/10, concentration not given)”.

As for B9, the binding result is given as “no binding (tested: extract 1/10, concentration not given)”.

Turning to B3, the binding result is reported as “no binding (tested: extract 1/10, concentration not given)”.

For B10, the binding result is “no binding (tested: extract 1/10, concentration not given)”.
